Measurements taken from patent US20050182242A1, “Global analysis of protein activities using proteome chips” (priority 2001, published 2005).

Tests used:
Settings in all cases: liposome binding signal on yeast proteome chip, Cy3-streptavidin detection
[1] = tested on: phosphatidylcholine (PC) liposomes; experiment: Yeast proteome chip probed with PC liposomes
Outline: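 Sonicated liposomes in TBS, of phosphatidylcholine with 1% (w/w) biotin-DHPE plus 5% (w/w) of the named phosphoinositide (PC-only liposomes lacking it), were incubated on blocked chips of GST-RGS-His6-tagged yeast ORF proteins for 1 h at RT. Bound liposomes were detected with Cy3- or Cy5-streptavidin after PBS washes.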

PI(3,4,5)P3 liposomes = experiment: Yeast proteome chip probed with PI(3,4,5)P3 liposomes
PI(3,4)P2 liposomes = experiment: Yeast proteome chip probed with PI(3,4)P2 liposomes
PI(3)P liposomes = experiment: Yeast proteome chip probed with PI(3)P liposomes
PI(4,5)P2 liposomes = experiment: Yeast proteome chip probed with PI(4,5)P2 liposomes

Molecule | PC [1] | PI(3, 4, 5)P3 (PI(3,4,5)P3 liposomes) | PI(3, 4)P2 (PI(3,4)P2 liposomes) | PI(3)P (PI(3)P liposomes) | PI(4, 5)P2 (PI(4,5)P2 liposomes)
CMK1: yeast calcium/calmodulin-dependent serine/threonine protein kinase, GST-HisX6 fusion (protein, left off: a dimerising Fc or GST, yeast calcium/calmodulin-dependent serine/threonine protein kinase, GST-HisX6 fusion) MDDKVSEKESSPKQTEEDSEGKMAHVQPASYVNKKKYVFGKTLGAGTFGVVRQAKNTETGEDVAVKILIKKALKGNKVQLEALYDELDILQRLHHPNIVAFKDWFESKDKFYIITQLAKGGELFDRILKKGKFTEEDAVRILVEILSAVKYMHSQNIVHRDLKPENLLYIDKSDESPLVVADFGIAKRLKSDEELLYKPAGSLGYVAPEVLTQDGHGKPCDIWSIGVITYTLLCGYSAFRAERVQDFLDECTTGEYPVKFHRPYWDSVSNKAKQFILKALNLDPSKRPTAAELLEDPWIICTELKTHNLLPGLKEGLDARQKFRNSVERVRLNMKIQKLRDLYLEQTESDSDFDEGSQANGSVPPLKATDTSQLSKKLSEEEQSKLKSELTSKAFAQLVNTVLAEKEKFLNINRVCSSDSDLPGSDIKSLDEAKEKPEGKDTKTEE | 1073.54 | 699.07 | 1786.71 | 7.00 | 545.23
MY04: yeast class V myosin heavy chain, GST-HisX6 fusion (protein, UniProt P32492 1-1471, looked up, GST-HisX6 tag, yeast class V myosin heavy chain, GST-HisX6 fusion) Myosin-4: MSFEVGTKCWYPHKEQGWIGGEVTKNDFFEGTFHLELKLEDGETVSIETNSFENDDDHPTLPVLRNPPILESTDDLTTLSYLNEPAVLHAIKKRYMNGQIYTYSGIVLIAANPFDKVDHLYSREMIQNYSSKRKDELEPHLFAIAEEAYRFMVHEKANQTVVVSGESGAGKTVSAKYIMRYFASVQESNNREGEVEMSQIESQILATNPIMEAFGNAKTTRNDNSSRFGKYLQILFDENTTIRGSKIRTYLLEKSRLVYQPETERNYHIFYQILEGLPEPVKQELHLSSPKDYHYTNQGGQPNIAGIDEAREYKITTDALSLVGINHETQLGIFKILAGLLHIGNIEMKMTRNDASLSSEEQNLQIACELLGIDPFNFAKWIVKKQIVTRSEKIVTNLNYNQALIARDSVAKFIYSTLFDWLVDNINKTLYDPELDQQDHVFSFIGILDIYGFEHFEKNSFEQFCINYANEKLQQEFNQHVFKLEQEEYVKEEIEWSFIEFSDNQPCIDLIENKLGILSLLDEESRLPSGSDESWASKLYSAFNKPPSNEVFSKPRFGQTKFIVSHYAVDVEYEVEGFIEKNRDSVSLGHLDVFKATTNPIFKQILDNRELRSDDAPEEQNTEKKIMIPARLSQKKPTLGSMFKKSLGELMAIINSTNVHYIRCIKPNSEKKPWEFDNLMVLSQLRACGVLETIRISCAGFPSRWTFDEFVQRYFLLTDYSLWSGILYNPDLPKEAIVNFCQSILDATISDSAKYQIGNTKIFFKAGMLAFLEKLRTNKMNEICIIIQKKIRARYYRLQYLQTMESIKKCQSQIRSLLVRTRVDHELKTRAAILLQTNIRALWKREYYRAAIGQIIKLQCTCKRKLILDSVNRKFMLMAAVIIQSYIRSYGHKTDYRTLKRSSILVQSAMRMQLARRRYIVLQKEVEERNIRASYGIGLLEEAIEFKNSFILNLEMLNDSYTRLTQLLQGDLSNIPSKQRQEYETIVNGYNDKISKLKTLQVEIMNTLNKKNALKERKKKQSSLIQSHMQSLAAIKGNKPSRLSDEVKSMKQELAFIENVIAQDFTTTYSANKNDKVKGLGIAGQQVKPKLVNVIRRESGNPDLLELLMDLNCYTLEVTEGYLKKVNVTEVNGDNVLGPIHVITTVVSSLVRNGLLIQSSKFISKVLLTVESIVMSLPKDETMLGGIFWLSNLSRLPAFAANQKTLYEANGGDEKDKLTLIYLNDLENETLKVFDKIYSTWLVKFMKHASAHIEIFDMVLNEKLFKNSGDEKFAKLFTFLNEFDAVLCKFQVVDSMHTKIFNDTLKYLNVMLFNDLITKCPALNWKYGYEVDRNIERLVSWFEPRIEDVRPNLIQIIQAVKILQLKISNLNEFKLLFDFWYALNPAQIQAILLKYKPANKGEAGVPNEILNYLANVIKRENLSLPGKMEIMLSAQFDSAKNHLRYDTSAITQNSNTEGLATVSKIIKLDRK | 103.89 | 51.07 | 171.73 | 2.00 | 4.79
